This is an account of results in paper doi:10.1101/2022.03.04.482347.

In test [1] the target is mouse PROM1 SV8 lacking exon 19a, Flag-tagged (mouse). In words: native gel or EMSA.
Test [2] concerns the target mouse PROM1, photoreceptor-specific isoform SV8 (contains exon 19a), Flag-tagged (mouse). In words: native gel or EMSA.

Where “and” joins values, the source holds several entries; their conditions need not be identical. Equal entries are not always repeated.

One may read the stoichiometry N as a count of units in the complex or per binding partner. “mouse PROM1 SV8 lacking exon 19a, Flag-tagged (natural protein)”: in test [1], the stoichiometry N was 2 and 4.
Regarding “mouse PROM1, photoreceptor-specific isoform SV8 (contains exon 19a), Flag-tagged (natural protein)”, the stoichiometry N in test [2] was 2 and 4.
